Source: PMC3515676

What was measured:
Assay in all cases: purified protein
Type in all cases: biochemical, Homo sapiens
Conditions in all cases: 14 μM PAP[35S], 50 mM Mops pH 7.0, 37 °C
[1] = substrate: C[C@H](CCC(=O)NCC(=O)O)[C@H]1CC[C@H]2[C@@H]3[C@H](O)C[C@@H]4C[C@H](O)CC[C@]4(C)[C@H]3CC[C@]12C
[2] = substrate: C[C@H](CCC(=O)O)[C@H]1CC[C@H]2[C@@H]3CC[C@@H]4C[C@H](O)CC[C@]4(C)[C@H]3CC[C@]12C
[3] = substrate: C[C@H](CCC(=O)O)[C@H]1CC[C@H]2[C@@H]3[C@H](O)C[C@@H]4C[C@H](O)CC[C@]4(C)[C@H]3CC[C@]12C
[4] = substrate: C[C@H](CCCO)[C@H]1CC[C@H]2[C@@H]3[C@H](O)C[C@H]4C[C@H](O)CC[C@]4(C)[C@H]3C[C@H](O)[C@]12C

B1: human SULT2A1 (hSULT2A1) (Homo sapiens) (protein)
chain: MSDDFLWFEGIAFPTMGFRSETLRKVRDEFVIRDEDVIILTYPKSGTNWLAEILCLMHSKGDAKWIQSVPIWERSPWVESEIGYTALSETESPRLFSSHLPIQLFPKSFFSSKAKVIYLMRNPRDVLVSGYFFWKNMKFIKKPKSWEEYFEWFCQGTVLYGSWFDHIHGWMPMREEKNFLLLSYEELKQDTGRTIEKICQFLGKTLEPEELNLILKNSSFQSMKENKMSNYSLLSVDYVVDKAQLLRKGVSGDWKNHFTVAQAEDFDKLFQEKMADLPRELFPWE
- Km [1]: 36.73 ± 2.47 µM
- Vmax [1]: 0.0038 µmol/min/mg
- Km [2]: 8.36 ± 0.39 µM
- Vmax [2]: 0.036 µmol/min/mg
- Km [3]: 42.30 ± 2.97 µM
- Vmax [3]: 0.00395 µmol/min/mg
- Km [4]: 49.38 ± 4.62 µM
- Vmax [4]: 0.00549 µmol/min/mg
